# B1: Serine/threonine-protein phosphatase 2A activator (Homo sapiens), Q15257 (parent)
# chain: MAEGERQPPPDSSEEAPPATQNFIIPKKEIHTVPDMGKWKRSQAYADYIGFILTLNEGVKGKKLTFEYRVSEMWNEVHEEKEQAAKQSVSCDECIPLPRAGHCAPSEAIEKLVALLNTLDRWIDETPPVDQPSRFGNKAYRTWYAKLDEEAENLVATVVPTHLAAAVPEVAVYLKESVGNSTRIDYGTGHEAAFAAFLCCLCKIGVLRVDDQIAIVFKVFNRYLEVMRKLQKTYRMEPAGSQGVWGLDDFQFLPFIWGSSQLIDHPYLEPRHFVDEKAVNENHKDYMFLECILFITEMKTGPFAEHSNQLWNISAVPSWSKVNQGLIRMYKAECLEKFPVIQHFKFGSLLPIHPVTSG
# B2: PiggyBac transposable element-derived protein 1 (Homo sapiens), Q96JS3 (parent)
# chain: MYEALPGPAPENEDGLVKVKEEDPTWEQVCNSQEGSSHTQEICRLRFRHFCYQEAHGPQEALAQLRELCHQWLRPEMHTKEQIMELLVLEQFLTILPKELQPCVKTYPLESGEEAVTVLENLETGSGDTGQQASVYIQGQDMHPMVAEYQGVSLECQSLQLLPGITTLKCEPPQRPQGNPQEVSGPVPHGSAHLQEKNPRDKAVVPVFNPVRSQTLVKTEEETAQAVAAEKWSHLSLTRRNLCGNSAQETVMSLSPMTEEIVTKDRLFKAKQETSEEMEQSGEASGKPNRECAPQIPCSTPIATERTVAHLNTLKDRHPGDLWARMHISSLEYAAGDITRKGRKKDKARVSELLQGLSFSGDSDVEKDNEPEIQPAQKKLKVSCFPEKSWTKRDIKPNFPSWSALDSGLLNLKSEKLNPVELFELFFDDETFNLIVNETNNYASQKNVSLEVTVQEMRCVFGVLLLSGFMRHPRREMYWEVSDTDQNLVRDAIRRDRFELIFSNLHFADNGHLDQKDKFTKLRPLIKQMNKNFLLYAPLEEYYCFDKSMCECFDSDQFLNGKPIRIGYKIWCGTTTQGYLVWFEPYQEESTMKVDEDPDLGLGGNLVMNFADVLLERGQYPYHLCFDSFFTSVKLLSALKKKGVRATGTIRENRTEKCPLMNVEHMKKMKRGYFDFRIEENNEIILCRWYGDGIISLCSNAVGIEPVNEVSCCDADNEEIPQISQPSIVKVYDECKEGVAKMDQIISKYRVRIRSKKWYSILVSYMIDVAMNNAWQLHRACNPGASLDPLDFRRFVAHFYLEHNAHLSD
# partner: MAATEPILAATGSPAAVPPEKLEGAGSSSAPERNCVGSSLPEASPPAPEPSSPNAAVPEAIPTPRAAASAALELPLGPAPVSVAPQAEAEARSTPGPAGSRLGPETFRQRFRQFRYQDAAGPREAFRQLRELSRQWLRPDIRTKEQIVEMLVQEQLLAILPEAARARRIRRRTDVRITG
# B3: TNF receptor-associated factor 2 (Homo sapiens), Q12933 (parent)
# chain: MAAASVTPPGSLELLQPGFSKTLLGTKLEAKYLCSACRNVLRRPFQAQCGHRYCSFCLASILSSGPQNCAACVHEGIYEEGISILESSSAFPDNAARREVESLPAVCPSDGCTWKGTLKEYESCHEGRCPLMLTECPACKGLVRLGEKERHLEHECPERSLSCRHCRAPCCGADVKAHHEVCPKFPLTCDGCGKKKIPREKFQDHVKTCGKCRVPCRFHAIGCLETVEGEKQQEHEVQWLREHLAMLLSSVLEAKPLLGDQSHAGSELLQRCESLEKKTATFENIVCVLNREVERVAMTAEACSRQHRLDQDKIEALSSKVQQLERSIGLKDLAMADLEQKVLEMEASTYDGVFIWKISDFARKRQEAVAGRIPAIFSPAFYTSRYGYKMCLRIYLNGDGTGRGTHLSLFFVVMKGPNDALLRWPFNQKVTLMLLDQNNREHVIDAFRPDVTSSSFQRPVNDMNIASGCPLFCPVSKMEAKNSYVRDDAIFIKAIVDLTGL
# partner: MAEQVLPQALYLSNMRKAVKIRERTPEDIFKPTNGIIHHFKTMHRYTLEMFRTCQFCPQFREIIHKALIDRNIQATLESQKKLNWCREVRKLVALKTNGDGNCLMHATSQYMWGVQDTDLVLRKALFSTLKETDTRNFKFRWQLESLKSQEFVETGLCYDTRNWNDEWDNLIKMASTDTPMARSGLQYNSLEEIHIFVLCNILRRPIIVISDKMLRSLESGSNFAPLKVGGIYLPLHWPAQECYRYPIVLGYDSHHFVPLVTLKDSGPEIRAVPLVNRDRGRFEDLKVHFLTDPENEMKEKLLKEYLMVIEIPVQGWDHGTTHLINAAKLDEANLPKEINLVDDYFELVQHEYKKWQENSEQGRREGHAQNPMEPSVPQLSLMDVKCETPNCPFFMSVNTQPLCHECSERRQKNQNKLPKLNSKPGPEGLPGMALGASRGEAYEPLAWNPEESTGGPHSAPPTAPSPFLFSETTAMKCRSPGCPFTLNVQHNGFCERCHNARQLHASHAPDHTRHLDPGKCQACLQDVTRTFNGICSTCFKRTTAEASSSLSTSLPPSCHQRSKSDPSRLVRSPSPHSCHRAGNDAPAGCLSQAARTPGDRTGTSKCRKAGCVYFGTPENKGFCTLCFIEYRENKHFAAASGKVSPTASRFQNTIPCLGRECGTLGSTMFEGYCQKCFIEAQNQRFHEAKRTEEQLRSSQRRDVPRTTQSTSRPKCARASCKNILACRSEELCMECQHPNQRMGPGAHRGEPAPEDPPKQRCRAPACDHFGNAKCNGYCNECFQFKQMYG
# B4: DCC-interacting protein 13-alpha (Homo sapiens), Q9UKG1 (parent)
# chain: MPGIDKLPIEETLEDSPQTRSLLGVFEEDATAISNYMNQLYQAMHRIYDAQNELSAATHLTSKLLKEYEKQRFPLGGDDEVMSSTLQQFSKVIDELSSCHAVLSTQLADAMMFPITQFKERDLKEILTLKEVFQIASNDHDAAINRYSRLSKKRENDKVKYEVTEDVYTSRKKQHQTMMHYFCALNTLQYKKKIALLEPLLGYMQAQISFFKMGSENLNEQLEEFLANIGTSVQNVRREMDSDIETMQQTIEDLEVASDPLYVPDPDPTKFPVNRNLTRKAGYLNARNKTGLVSSTWDRQFYFTQGGNLMSQARGDVAGGLAMDIDNCSVMAVDCEDRRYCFQITSFDGKKSSILQAESKKDHEEWICTINNISKQIYLSENPEETAARVNQSALEAVTPSPSFQQRHESLRPAAGQSRPPTARTSSSGSLGSESTNLAALSLDSLVAPDTPIQFDIISPVCEDQPGQAKAFGQGGRRTNPFGESGGSTKSETEDSILHQLFIVRFLGSMEVKSDDHPDVVYETMRQILAARAIHNIFRMTESHLLVTCDCLKLIDPQTQVTRLTFPLPCVVLYATHQENKRLFGFVLRTSSGRSESNLSSVCYIFESNNEGEKICDSVGLAKQIALHAELDRRASEKQKEIERVKEKQQKELNKQKQIEKDLEEQSRLIAASSRPNQASSEGQFVVLSSSQSEESDLGEGGKKRESEA
# Variants of: B1
# Settings: with amot_human AMOT
row,Variant,effect of a mutation on the interaction
1,K218T,with no effect

# Variants of: B2
# Settings: with scnd1_human SCAND1, P57086
row,Variant,effect of a mutation on the interaction
1,I678V,with no effect
2,P256L,with no effect
3,N398S,with no effect
4,Q248E,with no effect
5,G244E,with no effect

# Variants of: B3
# Settings: with tnap3_human TNFAIP3, P21580
row,Variant,effect of a mutation on the interaction
1,A264T,with no effect
2,T134A,with no effect
3,V206I,with no effect

# Variants of: B4
# Settings: with traf2_human TRAF2, Q12933
row,Variant,effect of a mutation on the interaction
1,E67G,with no effect

# Variants of: B4
# Settings: with maga9_human MAGEA9, P43362
# maga9_human MAGEA9, P43362, sequence (P43362 whole entry): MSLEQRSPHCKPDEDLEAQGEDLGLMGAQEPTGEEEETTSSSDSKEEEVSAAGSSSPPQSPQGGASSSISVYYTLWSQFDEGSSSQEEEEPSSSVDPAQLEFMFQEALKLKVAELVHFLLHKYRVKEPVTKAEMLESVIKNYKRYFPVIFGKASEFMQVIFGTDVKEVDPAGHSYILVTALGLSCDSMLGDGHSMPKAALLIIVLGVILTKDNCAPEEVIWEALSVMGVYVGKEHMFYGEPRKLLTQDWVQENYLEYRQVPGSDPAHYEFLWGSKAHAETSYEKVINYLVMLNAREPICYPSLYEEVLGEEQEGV
row,Variant,effect of a mutation on the interaction
1,E67G,with no effect

# — IntAct's records for PubMed 31515488
